Reference: patent US20240139329A1 (CALIFORNIA INSTITUTE OF TECHNOLOGY, published 2024)

B1: AAV9-X1.1 (other)
chain: MAADGYLPDWLEDNLSEGIREWWALKPGAPQPKANQQHQDNARGLVLPGYKYLGPGNGLDKGEPVNAADAAALEHDKAYDQQLKAGDNPYLKYNHADAEFQERLKEDTSFGGNLGRAVFQAKKRLLEPLGLVEEAAKTAPGKKRPVEQSPQEPDSSAGIGKSGAQPAKKRLNFGQTGDTESVPDPQPIGEPPAAPSGVGSLTMASGGGAPVADNNEGADGVGSSSGNWHCDSQWLGDRVITTSTRTWALPTYNNHLYKQISNSTSGGSSNDNAYFGYSTPWGYFDFNRFHCHFSPRDWQRLINNNWGFRPKRLNFKLFNIQVKEVTDNNGVKTIANNLTSTVQVFTDSDYQLPYVLGSAHEGCLPPFPADVFMIPQYGYLTLNDGSQAVGRSSFYCLEYFPSQMLRTGNNFQFSYEFENVPFHSSYAHSQSLDRLMNPLIDQYLYYLSRTIDGAATKNQTLKFSVAGPSNMAVQGRNYIPGPSYRQQRVSTTVTQNNNSEFAWPGASSWALNGRNSLMNPGPAMASHKEGEDRFFPLSGSLIFGKQGTGRDNVDADKVMITNEEEIKTTNPVATESYGQVATNHQSAQGNNTRSVAQAQTGWVQNQGILPGMVWQDRDVYLQGPIWAKIPHTDGNFHPSPLMGGFGMKHPPPQILIKNTPVPADPPTAFNKDKLNSFITQYSTGQVSVEIEWELQKENSKRWNPEIQYTSNYYKSNNVEFAVNTEGVYSEPRPIGTRYLTRNL
notes: also called AAV-X1.1; X1B10
B2: AAV.CAP-Mac (other)
chain: MAADGYLPDWLEDNLSEGIREWWALKPGAPQPKANQQHQDNARGLVLPGYKYLGPGNGLDKGEPVNAADAAALEHDKAYDQQLKAGDNPYLKYNHADAEFQERLKEDTSFGGNLGRAVFQAKKRLLEPLGLVEEAAKTAPGKKRPVEQSPQEPDSSAGIGKSGAQPAKKRLNFGQTGDTESVPDPQPIGEPPAAPSGVGSLTMASGGGAPVADNNEGADGVGSSSGNWHCDSQWLGDRVITTSTRTWALPTYNNHLYKQISNSTSGGSSNDNAYFGYSTPWGYFDFNRFHCHFSPRDWQRLINNNWGFRPKRLNFKLFNIQVKEVTDNNGVKTIANNLTSTVQVFTDSDYQLPYVLGSAHEGCLPPFPADVFMIPQYGYLTLNDGSQAVGRSSFYCLEYFPSQMLRTGNNFQFSYEFENVPFHSSYAHSQSLDRLMNPLIDQYLYYLSRTINGSGQNQQTLKFSVAGPSNMAVQGRNYIPGPSYRQQRVSTTVTQNNNSEFAWPGASSWALNGRNSLMNPGPAMASHKEGEDRFFPLSGSLIFGKQGTGRDNVDADKVMITNEEEIKTTNPVATESYGQVATNHQSAQLNTTKPIAQAQTGWVQNQGILPGMVWQDRDVYLQGPIWAKIPHTDGNFHPSPLMGGFGMKHPPPQILIKNTPVPADPPTAFNKDKLNSFITQYSTGQVSVEIEWELQKENSKRWNPEIQYTSNYYKSNNVEFAVNTEGVYSEPRPIGTRYLTRNL
notes: also called CAP-C1

Legend:
[1] = target: T1, human GP2 (AA 1-518) triple tagged with Fc-Myc-6×His (human, UniProt P55259 29-518); assay: validated interaction (cell culture potency assay and/or SPR)
T1 construct: also called human GP2-Fc; not shown: Fc and Myc tags
T1 sequence (P55259 29-518): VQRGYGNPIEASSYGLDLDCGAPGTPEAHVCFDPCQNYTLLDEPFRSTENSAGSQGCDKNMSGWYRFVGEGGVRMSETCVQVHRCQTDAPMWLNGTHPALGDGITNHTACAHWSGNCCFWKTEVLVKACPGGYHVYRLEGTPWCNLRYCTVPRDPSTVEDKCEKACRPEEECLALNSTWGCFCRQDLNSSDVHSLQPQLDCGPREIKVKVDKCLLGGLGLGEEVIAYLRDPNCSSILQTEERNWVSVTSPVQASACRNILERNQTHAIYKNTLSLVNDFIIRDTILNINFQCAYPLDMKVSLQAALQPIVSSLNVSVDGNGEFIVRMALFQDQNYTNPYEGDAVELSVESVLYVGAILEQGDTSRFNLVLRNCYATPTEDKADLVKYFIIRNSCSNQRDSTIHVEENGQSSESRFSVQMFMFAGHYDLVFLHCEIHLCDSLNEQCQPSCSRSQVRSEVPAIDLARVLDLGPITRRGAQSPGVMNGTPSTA

[2] = target: T2, Mouse SCA1 (LY6A), on cells (mouse, UniProt P05533 27-112); assay: cell microarray, individual capsids, anti-AAV9 detection
T2 construct: whole, on cells; also called mouse LY6A
T2 sequence: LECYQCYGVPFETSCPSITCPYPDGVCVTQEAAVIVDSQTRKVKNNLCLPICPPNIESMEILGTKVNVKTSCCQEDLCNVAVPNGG
Experimental: To enable higher-throughput screening, the six capsids were tested as a pool. Pooled testing required additional dosage optimizing, first for the individual and then for the collective background binding levels of the included capsids (Table 5).

[3] = target: T3, human low-density lipoprotein receptor-related protein 6 (LRP6), on cells (human, UniProt O75581 20-1613); assay: cell microarray screen hit (membrane)
T3 construct: also called hLRP6
Experimental: After these controls, the six-capsid pool was tested in a full screen of approximately 6400 proteins, including 6000 human plasma membrane proteins and secreted and cell surface-tethered proteins, as well as approximately 400 heterodimers. […] To assign these hits to specific capsids, follow-up deconvolution screens were performed with each individual capsid from the pool (FIG. 12E). DNA oligos for the 22 identified hits, as well as the positive control CD86, were affixed in duplicate locations to new slides. A negative control condition with no AAV analyte and a positive control condition with CTLA4-Fc (CD86 binder) were also included.

[4] = target: T3, human low-density lipoprotein …; assay: cell microarray screen

| Binder | binding result [1] | binding result [2] | binding result [3] | binding result [4] |
| --- | --- | --- | --- | --- |
| B1 | binds | no binding | binds | – |
| B2 | – | no binding | – | binds |
